Assay results published in patent publication US20250154268A1 (NONA BIOSCIENCES SUZHOU, published 2025).
Read-outs that look alike come from different tables or passages of the source. Each block holds one binder with its values, some of them ahead of it.

Assays:
human CD25 [1] = target: T1, human CD25 (human, UniProt P01589 22-272); experiment: flow cytometry, SU-DHL-1 cells
T1 construct: whole, on cells; Always presented on cells; also called huCD25; IL2Rα
T1 sequence (looked up): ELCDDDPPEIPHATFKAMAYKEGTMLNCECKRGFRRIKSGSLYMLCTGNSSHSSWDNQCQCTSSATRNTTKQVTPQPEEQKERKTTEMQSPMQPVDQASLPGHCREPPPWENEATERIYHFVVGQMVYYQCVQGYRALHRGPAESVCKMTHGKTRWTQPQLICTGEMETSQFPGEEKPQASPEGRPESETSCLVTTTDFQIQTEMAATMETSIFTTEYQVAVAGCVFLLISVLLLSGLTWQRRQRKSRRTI
Protocol: (§1) Briefly, the CHOK1-huCD25 cells and HEK293-cynoCD25 cells were digested, the SU-DHL-1 cells, Karpas299 cells, Treg cells and Teff cells were collected, and the cells were resuspended in PBS containing 2% BSA. The cells were adjusted to a cell density of 1×10⁶ cells/mL, respectively. […] The cells were incubated at 4° C. for 1 hour in the dark. After the incubation, the cells were rinsed twice by adding pre-chilled PBS containing 2% BSA at 100 μL/well, and centrifuged at 500 g at 4° C. for 5 minutes, and the supernatant was discarded. […] The cells were washed twice by adding pre-chilled PBS containing 2% BSA at 100 μL/well, and centrifuged at 500 g at 4° C. for 5 minutes, and the supernatant was discarded. Finally, the cells were resuspended in pre-chilled PBS containing 2% BSA at 200 μL/well, and the fluorescence signal values were read using a BD CantoII flow cytometer.

human CD25 [2] = target: T1, human CD25; experiment: flow cytometry, Karpas299 cells
human CD25 [3] = target: T1, human CD25; experiment: flow cytometry, SU-DHL-1 cells; remark: listed apart in the source
Protocol: as §1

human CD25 [4] = target: T1, human CD25; experiment: flow cytometry, Karpas299 cells; remark: listed apart in the source
cynomolgus monkey CD25 [5] = target: T2, cynomolgus monkey CD25 (cynomolgus monkey, UniProt H6WS54 22-272); experiment: flow cytometry, HEK293-cynoCD25 cells
T2 construct: whole, on cells; also called cynoCD25
T2 sequence: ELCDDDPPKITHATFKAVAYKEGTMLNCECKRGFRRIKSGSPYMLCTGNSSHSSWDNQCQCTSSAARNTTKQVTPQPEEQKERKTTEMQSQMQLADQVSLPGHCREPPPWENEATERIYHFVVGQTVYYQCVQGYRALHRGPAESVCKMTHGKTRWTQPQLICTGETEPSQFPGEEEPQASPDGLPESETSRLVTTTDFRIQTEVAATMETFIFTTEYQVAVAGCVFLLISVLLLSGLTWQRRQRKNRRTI
Protocol: as §1

human CD25 [6] = target: T1, human CD25; experiment: flow cytometry, SU-DHL-1 cells; remark: listed apart in the source
Protocol: as §1

human CD25 [7] = target: T1, human CD25; experiment: flow cytometry, Karpas299 cells; remark: listed apart in the source
Protocol: as §1

human CD25 [8] = target: T1, human CD25; experiment: flow cytometry, CHOK1-huCD25 cells
Protocol: as §1

cynomolgus monkey CD25 [9] = target: T2, cynomolgus monkey CD25; experiment: flow cytometry, HEK293-cynoCD25 cells; remark: listed apart in the source
Protocol: as §1

human CD25 [10] = target: T1, human CD25; experiment: flow cytometry, SU-DHL-1 cells; remark: listed apart in the source
Protocol: as §1

human CD25 [11] = target: T1, human CD25; experiment: flow cytometry, Karpas299 cells; remark: listed apart in the source
Protocol: as §1

cynomolgus monkey CD25 [12] = target: T2, cynomolgus monkey CD25; experiment: flow cytometry, HEK293-cynoCD25 cells; remark: listed apart in the source
Protocol: as §1

EC50 (human CD25 [1]): 1.68 nM | Maximum MFI (human CD25 [1]): 32500 MFI | EC50 (human CD25 [2]): 5.81 nM | Maximum MFI (human CD25 [2]): 10200 MFI
B1: PR007181 (antibody, human IgG1, kappa, V domains shown)
VH: QVQLQESGPGLVKPSGTLSLTCAVSGGSISSSNWWSWVRQSPGKGLEWIGEIYHSGSTNYNPSLKSRVTISVDKSKNQFSLKLSSVTAADTAVYYCARDRLVAVAGIFDYWGQGTLVTVSS
VL: EIVMTQSPATLSVSPGERATFSCRASQTVSSDLAWYQQKPGQAPRLLIYGASTRATGIPARFSGSGSGTEFTLTISSLQSEDFAFYYCQQSNDWPYTFGQGTKLEIKR
notes: Fully human recombinant IgG1, kappa; also called 111C1D7

EC50 (human CD25 [3]): 2.94 nM | Maximum MFI (human CD25 [3]): 32200 MFI | EC50 (human CD25 [4]): 39.3 nM | Maximum MFI (human CD25 [4]): 16800 MFI | EC50 (cynomolgus monkey CD25 [5]): 3.53 nM | Maximum MFI (cynomolgus monkey CD25 [5]): 132000 MFI
B2: PR006769 (antibody, human IgG1, kappa, V domains shown)
VH: QVQLQGSGPGLVKPSGTLSLTCAVSPGSISSSNWWNWVRQPPGKGLEWIGEIYHRGSTNYNPSLKSRVTISVDKSKNQFSLKLSSVTAADTAVYYCTHYYYDSSGYYYGYWGQGTLVTVSS
VL: DIVMTQSPLSLPVTPGEPASISCRSSQSLLHRDVYNYVDWYLQKPGQSPQLLIYLGSNRASGVPDRFSGSGSGTDFTLKISRVEAEDVGVYYCMQALQTPLTFGGGTKVEIKR
notes: PTM variant of PR005436 (VH:D26P); human IgG1

EC50 (human CD25 [3]): 4.56 nM | Maximum MFI (human CD25 [3]): 29800 MFI | EC50 (human CD25 [4]): 40 nM | Maximum MFI (human CD25 [4]): 8970 MFI | EC50 (cynomolgus monkey CD25 [5]): 5.35 nM | Maximum MFI (cynomolgus monkey CD25 [5]): 136000 MFI
B3: PR006771 (antibody, human IgG1, kappa, V domains shown)
VH: QVQLQGSGPGLVKPSGTLSLTCAVSPGSISSSNWWNWVRQPPGKGLEWIGEIYHRGSTNYNPSLKSRVTISVDKSKNQFSLKLSSVTAADTAVYYCTHYYYDSSGYYYGYWGQGTLVTVSS
VL: DIVMTQSPLSLPVTPGEPASISCRSSQSLLHRRGYNYVDWYLQKPGQSPQLLIYLGSNRASGVPDRFSGSGSGTDFTLKISRVEAEDVGVYYCMQALQTPLTFGGGTKVEIKR
notes: as for B2

EC50 (human CD25 [6]): 1.4 nM | Maximum MFI (human CD25 [6]): 33300 MFI | EC50 (human CD25 [7]): 67.2 nM | Maximum MFI (human CD25 [7]): 32100 MFI | EC50 (human CD25 [8]): 0.86 nM | Maximum MFI (human CD25 [8]): 49200 MFI | EC50 (cynomolgus monkey CD25 [9]): 1.75 nM | Maximum MFI (cynomolgus monkey CD25 [9]): 189000 MFI
B4: PR005436 (antibody, human IgG1, kappa, V domains shown)
VH: QVQLQGSGPGLVKPSGTLSLTCAVSDGSISSSNWWNWVRQPPGKGLEWIGEIYHRGSTNYNPSLKSRVTISVDKSKNQFSLKLSSVTAADTAVYYCTHYYYDSSGYYYGYWGQGTLVTVSS
VL: DIVMTQSPLSLPVTPGEPASISCRSSQSLLHRDGYNYVDWYLQKPGQSPQLLIYLGSNRASGVPDRFSGSGSGTDFTLKISRVEAEDVGVYYCMQALQTPLTFGGGTKVEIKR
notes: Fully human recombinant IgG1, kappa; also called 310D11F6

EC50 (human CD25 [10]): 4.68 nM | Maximum MFI (human CD25 [10]): 27300 MFI | EC50 (human CD25 [11]): 20.3 nM | Maximum MFI (human CD25 [11]): 10000 MFI | EC50 (cynomolgus monkey CD25 [12]): 17.5 nM | Maximum MFI (cynomolgus monkey CD25 [12]): 90100 MFI
B5: PR006927 (antibody, human IgG1, kappa, V domains shown)
VH: QVQLQESGPGLVKPSETLSLTCTVSGGSIRSYYWSWIRQPPGKGLEWIGYIYYSGSTNYNPSLKSRVTISVDTSKNQFSLKLSSVTAADTAVYYCARDILTGYSDWFFDLWGRGTLVTVSS
VL: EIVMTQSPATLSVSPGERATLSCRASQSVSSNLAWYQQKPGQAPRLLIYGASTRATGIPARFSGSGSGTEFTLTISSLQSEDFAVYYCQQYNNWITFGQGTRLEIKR
notes: Fully human recombinant IgG1, kappa; also called 113D5A1

EC50 (human CD25 [1]): 1.85 nM | Maximum MFI (human CD25 [1]): 34700 MFI | EC50 (human CD25 [2]): 20 nM | Maximum MFI (human CD25 [2]): 10600 MFI
B6: PR006928 (antibody, human IgG1, kappa, V domains shown)
VH: QVQLVQSGGGVVQPGRSLRLSCAASGFTFSNYDMHWVRQAPGKGLEWVAVIWYDGINKHYTDSVKGRFTMSRDNFKNTLHLQMNSLRAEDTAIYYCAREGAGDAFDIWGQGTMVTVSS
VL: DIQMTQSPSTLSASVGDRVTITCRASQSFDNWLAWYQQKPGKAPKLLIYKASSLESGVPSRFSGSGSGTEFTLTISSLQPDDFATYYCQQYNSYSTFGQGTRLEIKR
notes: Fully human recombinant IgG1, kappa; also called 150G7E2

EC50 (human CD25 [10]): 1.53 nM | Maximum MFI (human CD25 [10]): 43900 MFI | EC50 (human CD25 [11]): 1.21 nM | Maximum MFI (human CD25 [11]): 18300 MFI | EC50 (cynomolgus monkey CD25 [12]): 1.63 nM | Maximum MFI (cynomolgus monkey CD25 [12]): 82000 MFI
B7: PR006122 (antibody, human IgG1, kappa, V domains shown)
VH: QVQLVESGGGVVQPGRSLRLSCAASGFTFSSYYMHWVRQAPGKGLEWVAVIWYDGSNKYYADSVKGRFTISRDNSKNTLYLQMNSLRAEDTAVYYCAGAGKGELPFDYWGQGTLVTVSS
VL: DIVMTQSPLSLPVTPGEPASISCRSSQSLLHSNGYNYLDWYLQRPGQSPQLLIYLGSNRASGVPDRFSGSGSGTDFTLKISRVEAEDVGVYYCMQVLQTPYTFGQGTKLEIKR
notes: Fully human recombinant IgG1, kappa; also called 189F2G11
